Earlier results, collected in doi:10.1101/2024.09.05.611512.

Key:
S100A10 (Homo sapiens) = S100A10 (Homo sapiens) (UniProt P60903)
[1] = biological target: calpain 1 & 2 (Homo sapiens) (UniProt P07384)
Chain of UniProt P07384 (P07384 2-714): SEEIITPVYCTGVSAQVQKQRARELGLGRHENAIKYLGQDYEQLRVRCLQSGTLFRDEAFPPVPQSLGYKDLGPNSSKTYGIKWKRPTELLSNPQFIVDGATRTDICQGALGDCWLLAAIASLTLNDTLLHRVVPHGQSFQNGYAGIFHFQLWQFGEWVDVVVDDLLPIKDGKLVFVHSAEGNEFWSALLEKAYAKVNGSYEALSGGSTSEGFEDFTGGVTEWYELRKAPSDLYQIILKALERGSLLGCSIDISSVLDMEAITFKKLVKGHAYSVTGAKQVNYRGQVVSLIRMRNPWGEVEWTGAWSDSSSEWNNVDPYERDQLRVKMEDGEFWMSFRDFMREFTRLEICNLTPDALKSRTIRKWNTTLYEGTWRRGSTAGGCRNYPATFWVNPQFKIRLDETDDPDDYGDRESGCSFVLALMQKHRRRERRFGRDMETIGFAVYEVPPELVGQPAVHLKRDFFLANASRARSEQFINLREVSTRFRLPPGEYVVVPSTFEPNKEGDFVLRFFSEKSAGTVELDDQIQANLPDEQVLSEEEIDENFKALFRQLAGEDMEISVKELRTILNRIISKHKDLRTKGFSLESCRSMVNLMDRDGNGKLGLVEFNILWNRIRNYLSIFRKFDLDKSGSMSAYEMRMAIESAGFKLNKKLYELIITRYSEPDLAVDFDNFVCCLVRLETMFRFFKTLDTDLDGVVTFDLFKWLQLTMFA

Chain of UniProt P60903 (P60903 whole entry): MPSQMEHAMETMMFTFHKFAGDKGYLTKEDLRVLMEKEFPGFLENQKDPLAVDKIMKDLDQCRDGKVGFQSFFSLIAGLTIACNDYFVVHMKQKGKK

Row | Substance | Kd (S100A10 (Homo sapiens)) | Ki [1]
1 | annexin A2 first 10-12 residues (from UniProt P07355) | 13 nM | 
2 | calpastatin domain I (from UniProt P20810) |  | 15 nM
